Measurements published in US20260125649A1, “MEDIUM COMPOSITION AND METHOD FOR CULTURING MESENCHYMAL STEM CELLS” (ACADEMIA SINICA, priority 2018, published 2026).

Experiments:
Format in all cases: cell-based, human
[1] = tested on: HMGA2 binding to the promoters of Oct4 and Sox2; assay: ChIP of HMGA2 binding to promoters of pluripotency genes; conditions: EpEX treatment, data not shown
Method: MSCs were treated with EpEX (3 μg/mL), and the expression of HMGA2 was detected by immunofluorescence staining. […] To detect the binding of HMGA2 to Oct4 promoters, cross-linked DNA was isolated and then amplified with specific primers by qPCR. […] The gene expression of HMGA2 is detected by qPCR. MSCs were treated with let-7 mimetic and then treated with EpEX (3 μg/mL) for 12 h. The protein abundance of HMGA2 was examined by Western blotting.
We performed chromatin immunoprecipitation (ChIP) with the Pierce™ Magnetic ChIP Kit (Thermo Fisher Scientific), to according the manufacturer's instructions. In brief, the protein-DNA complexes were cross-linked with 1% formaldehyde and quenched by adding glycine to a final concentration of 200 mM. The chromatin complexes were sonicated to an average size of 250 bp by a MISONIX Sonicator 3000. For immunoprecipitation, 4 μg of […] (Novus) was incubated with protein G beads (Invitrogen) for 4 h. The immunocomplexes were further incubated with chromatin for another 4 h. […]
The immunoprecipitated DNA was recovered by a PCR purification kit (Thermo Fisher Scientific), and the purified DNA was subjected to real time quantitative PCR for further analysis. Immunoprecipitation/input was calculated for each gene and each gene was further normalized to the level of mouse β-actin promoter. […]

let-7 = let-7 expression by qPCR; conditions: EpEX 3 μg/mL
Text: The expression of let-7 was detected by qPCR. MSCs expressing EGFR shRNA, STAT3 shRNA or Lin28b shRNA were stimulated with EpEX. The expression of let-7 was detected by qPCR. […] Expression of pluripotency factors (Oct4, Sox2, c-Myc and Lin28) was examined by qPCR. MSCs were transfected with a let-7 mimetic, and then stimulated with EpEX. Protein levels of pluripotency factors (Oct4, Sox2, c-Myc, and Lin28) were examined by Western blotting.
(§1) Total RNA was extracted using TRI reagent (Invitrogen, CA, USA), and 5 μg of total RNA was reverse transcribed using oligo (dT) primer (Fermentas, Glen Burnie, MD, USA) with SuperScript III reverse transcriptase (Invitrogen). Quantitative real time RT-PCR (qPCR) was performed on cDNA using the Light Cycler 480 SYBR Green I Master kit (Roche Applied Science, Indianapolis, IN) and the LightCycler480 System (Roche Applied Science). The gene expression levels of each sample were normalized to the expression levels of glyceraldehyde 3-phosphate dehydrogenase (GAPDH).

RUNX2 = RUNX2 gene expression by qPCR during osteo-induction; conditions: EpEX in osteogenetic medium
Method: Calcium precipitation was measured by Alizarin Red S (ARS) staining to probe the efficiency of osteogenesis. […] Quantification of osteogenesis, as measured by ARS staining, is shown for each group. MSCs were induced by osteogenetic medium and treated with EpEX at indicated doses. The gene expression of RUNX2 was examined by qPCR. […] ARS staining was performed to check the efficiency of osteogenesis. MSCs were pretreated with let-7 inhibitor and then treated with EpEX for 14 days during osteo-induction. ARS staining was performed to check the efficiency of osteogenesis. […] RUNX2 gene expression was measured by qPCR. MSCs were pretreated with let-7 inhibitor and induced by EpEX. RUNX2 gene expression was examined by qPCR. […] Upon EpEX stimulation, phosphorylation of EGFR-STAT3 signaling is induced and subsequently upregulates the level of Lin28 which inhibits let-7. […]
as §1, with “The gene expression levels of each sample were normalized to the expression levels of glyceraldehyde 3-phosphate dehydrogenase (GAPDH).” left out

B1: EpEX: extracellular domain of human EpCAM, 265 amino acids in length (SEQ ID NO: 2) (protein, listed as Homo sapiens)
chain: MAPPQVLAFGLLLAAATATFAAAQEECVCENYKLAVNCFVNNNRQCQCTSVGAQNTVICSKLAAKCLVMKAEMNGSKLGRRAKPEGALQNNDGLYDPDCDESGLFKAKQCNGTSMCWCVNTAGVRRTDKDTEITCSERVRTYWIIIELKHKAREKPYDSKSLRTALQKEITTRYQLDPKFITSILYENNVITIDLVQNSSQKTQNDVDIADVAYYFEKDVKGESLFHSKKMDLTVNGEQLDLDPGQTLIYYVDEKAPEFSMQGLK
HMGA2 binding to the promoters of Oct4 and Sox2 [1]: can induce | level of let-7 (let-7): decreased | RUNX2 transcript level (RUNX2): increased
